The assay addresses T1, Full-length human CDK1 from a 3C-protease cleavable GST fusion (GPLGS left at the N terminus), … (human, UniProt P06493 1-297).
T1 construct: short cloning artefact left at the N terminus after 3C cleavage of the GST fusion; CDK1, human, full length; also called GST-CDK1 (before cleavage); unphosphorylated CDK1; source: insect cells (Sf9, baculovirus pVL1393GST-CDK1), purified (glutathione-sepharose 4B, GST-3C cleavage, SEC); for ITC treated with λ-phosphatase and purified again by SEC; not shown: GST, N-terminal, cleaved
Description: ITC; higher salt, higher pH: 50 mM HEPES pH 8.0, 500 mM NaCl, 0.01% MTG, 30 °C; cyclin in the cell, unphosphorylated CDK from the syringe; one-set-of-sites model. The note with it: both partners purified. Background: ITC needs no label: the signal is the heat of the interaction.

T1 sequence (P06493 other isoform, or with tags, fused parts or gaps): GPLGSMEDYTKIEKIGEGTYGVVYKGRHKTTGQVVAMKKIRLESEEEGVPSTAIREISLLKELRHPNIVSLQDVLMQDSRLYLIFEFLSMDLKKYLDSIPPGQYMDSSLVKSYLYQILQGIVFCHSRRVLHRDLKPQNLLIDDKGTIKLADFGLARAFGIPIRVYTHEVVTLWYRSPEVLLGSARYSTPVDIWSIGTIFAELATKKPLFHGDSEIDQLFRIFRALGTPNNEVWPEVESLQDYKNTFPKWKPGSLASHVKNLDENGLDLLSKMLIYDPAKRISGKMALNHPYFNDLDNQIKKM

B1: Human cyclin B1, residues 165–433 carrying the C167S/C238S/C350S mutations (domain or fragment)
chain: GSHMNLSSEYVKDIYAYLRQLEEEQAVRPKYLLGREVTGNMRAILIDWLVQVQMKFRLLQETMYMTVSIIDRFMQNNSVPKKMLQLVGVTAMFIASKYEEMYPPEIGDFAFVTDNTYTKHQIRQMEMKILRALNFGLGRPLPLHFLRRASKIGEVDVEQHTLAKYLMELTMLDYDMVHFPPSQIAAGAFSLALKILDNGEWTPTLQHYLSYTEESLLPVMQHLAKNVVMVNQGLTKHMTVKNKYATSKHAKISTLPQLNSALVQDLAKAVAKV
notes: artefact left N-terminal to N165 after thrombin cleavage of the hexa-histidine tag; cyclin B1, human, residues 165–433 (begins at N165); not shown: His6, N-terminal, cleaved
The Kd is the constant that tells how readily two partners part at equilibrium. On to B1, for which the Kd amounted to 28 nM.

The values above are taken from PMC4413027 (Nature Communications, 2015).
